Test results: patent publication US7192728B2, “Screening assays for agents that alter inhibitor of apoptosis (IAP) protein regulation of caspase activity” (The Burnham Institute, priority 1997, dated 2007)

Columns and labels:
caspase-9 = biological target: T1, caspase-9 (Homo sapiens, UniProt P55211); test: Inhibition of purified recombinant active caspase-9; assay type: biochemical; details: for pro-caspase-3 activation by caspase-9, coupled Ac-DEVD-AFC hydrolysis (in words): coupled reaction
T1 construct: Full length N-terminally tagged caspase-9 was subcloned from pcDNA3; His6 (N); made in house; host or cells: E. coli BL21 (DE3), vector pET-23d
T1 sequence (P55211 1-315 limits assumed): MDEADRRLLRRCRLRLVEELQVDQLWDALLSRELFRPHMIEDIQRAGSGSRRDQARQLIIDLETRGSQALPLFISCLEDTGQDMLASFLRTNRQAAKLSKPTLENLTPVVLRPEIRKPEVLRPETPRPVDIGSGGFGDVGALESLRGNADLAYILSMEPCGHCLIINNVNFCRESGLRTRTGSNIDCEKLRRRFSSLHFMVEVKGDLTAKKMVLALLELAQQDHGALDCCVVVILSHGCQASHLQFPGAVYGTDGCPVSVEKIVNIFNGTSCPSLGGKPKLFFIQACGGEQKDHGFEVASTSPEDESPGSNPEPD
T1 sequence (P55211 331-416 limits assumed): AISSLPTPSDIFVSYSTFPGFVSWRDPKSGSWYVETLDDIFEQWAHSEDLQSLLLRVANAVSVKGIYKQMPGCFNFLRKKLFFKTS
Procedure: Caspase-9 activity was measured by monitoring the processing and activity of the purified recombinant zymogen form of caspase-3 that was produced in bacteria. Active caspase-9 (0.1 μM) was incubated with pro-caspase-3 (0.5 μM) in the presence or absence of GST-XIAP (0.1 μM). Experiments were performed with two independent preparations of active caspase-9. Samples were subsequently analyzed for pro-caspase-3 processing by immunoblot analysis. Asterisks denote the processed forms of the large subunit of caspase-3. Samples were simultaneously assayed for release of the AFC fluorophore from DEVD-AFC. Activity was arbitrarily designated as 100% for one of the two preparations of active caspase-9.
For the results shown in FIG. 7C, pro-caspase-9 was in vitro translated in reticulocyte lysates in the presence of ^35S-L-methionine and then purified by metal chromatography. […] Proteins were analyzed by SDS-PAGE and autoradiography. An asterisk denotes the processed form of caspase-9.

pro-caspase-9 [1] = test: Co-immunoprecipitation of pro-caspase-9 with myc-tagged IAPs in 293T cells; assay type: binding, human; details: anti-myc immunoprecipitation, anti-FLAG blot
Procedure: Co-immunoprecipitations and immunoblot assays were performed as follows. […] Cells were collected 24–48 hrs later by centrifugation, washed in ice cold PBS and lysed for 20 minutes in lysis buffer (10 mM Hepes, 142 mM KCl, 5 mM MgCl2, 1 mM EGTA, 0.2% NP-40). Lysates were cleared by centrifugation at 16,000×g for 30 minutes. Myc-tagged IAP proteins were immunoprecipitated with 40 μl of anti-myc 9E10 antibody immobilized on Protein G-Sepharose (Santa Cruz) for 2 hrs. Immunoprecipitates were washed 3 times with lysis buffer, and bound proteins separated by SDS-PAGE and analyzed by immunoblotting using antibodies specific for the FLAG epitope (Kodak, Inc.), myc-epitope, or caspase-3.
Cell lysates were prepared 16 hr later for either (A) immunoblot analysis of caspase-3, or (B) DEVD-AFC. Immunoblot analysis of pro-caspase-3 was performed with lysates from cells induced to undergo apoptosis by overexpressing pro-caspase-9 in the absence or presence of the IAPs. For DEVD-AFC analysis, lysates were normalized for total protein content and assayed for hydrolysis of DEVD-AFC as described above. […] Lysates from the same cell (50 μg per lane) were also analyzed by immunoblotting using anti-FLAG and anti-myc antibodies to verify expression of […].

pro-caspase-9 [2] = test: Cytochrome c-induced processing of pro-caspase-9 in 293 cytosolic extracts; assay type: biochemical, human; details: for cytochrome c-induced pro-caspase-9 processing (in words): 0.2 μM GST-IAP, 30 min at 30° C.
Procedure: Cytochrome c induced processing of pro-caspase-9 was subsequently monitored by SDS-PAGE and autoradiography.
Pro-caspase-9 inhibition by Ac-DEVD-fmk, zVAD-fmk and XIAP was compared as follows. In vitro translated ^35S-labeled pro-caspase-9 was added to cytosolic extracts from 293 cells containing 10 μM cytochrome c and 1 mM dATP. Samples were incubated at 30° C. for 30 minutes in the presence of the indicated concentrations of inhibitors. Proteins were separated on SDS-PAGE gels, dried directly, and exposed to film.

pro-caspase-9 [3] = biological target: T2, pro-caspase-9 (Homo sapiens, UniProt P55211); test: GST pull-down binding of in vitro translated pro-caspase-9; details: about 2 μM GST protein on glutathione-Sepharose
T2 construct: in vitro translated ^35S-labeled pro-caspase-9 and Apaf-1 were incubated individually or together; His6; made in house; host or cells: coupled in vitro transcription/translation in reticulocyte lysate (TNT kit, Promega)
T2 sequence (P55211 1-416): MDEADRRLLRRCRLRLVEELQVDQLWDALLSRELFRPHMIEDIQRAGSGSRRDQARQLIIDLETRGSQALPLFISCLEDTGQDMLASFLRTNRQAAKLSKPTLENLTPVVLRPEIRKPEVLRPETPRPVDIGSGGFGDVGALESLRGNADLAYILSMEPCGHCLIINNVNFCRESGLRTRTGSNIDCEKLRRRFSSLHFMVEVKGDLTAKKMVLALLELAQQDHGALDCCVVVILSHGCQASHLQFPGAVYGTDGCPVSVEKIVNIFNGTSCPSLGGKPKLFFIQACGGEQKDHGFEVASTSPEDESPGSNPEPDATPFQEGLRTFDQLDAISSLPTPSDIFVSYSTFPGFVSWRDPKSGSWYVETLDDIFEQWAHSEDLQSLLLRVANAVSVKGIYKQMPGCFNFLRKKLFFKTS

processing of 35S-pro-caspase-9 by active caspase-9 (in words) (caspase-9; 0.1 μM caspase-9, 0.1 μM GST-XIAP, 30° C., 1 hr) | pro-caspase-3 activation by caspase-9, coupled Ac-DEVD-AFC hydrolysis (in words) (caspase-9) | cleavage of pro-caspase-3 by caspase-9, immunoblot (in words) (caspase-9; equimolar to caspase-9 (0.1 μM), pro-caspase-3 0.5 μM) | concentration to completely abolish cytochrome c-mediated processing of pro-caspase-9 (pro-caspase-9 [2]; 10 μM cytochrome c, 1 mM dATP, 30° C., 30 min) | association with in vitro translated pro-caspase-9 (in words) (pro-caspase-9 [3]) | Substance | co-immunoprecipitation of the zymogen form of caspase-9 (in words) (pro-caspase-9 [1]) | potency relative to baculovirus p35 protein at inhibiting cytochrome c-induced processing of pro-caspase-9 (pro-caspase-9 [2]) | cytochrome c-induced pro-caspase-9 processing (in words) (pro-caspase-9 [2])
potently inhibited | efficiently inhibited | strongly inhibited | less than 0.2 μM | associated with pro-caspase-9 | XIAP: X chromosome linked inhibitor of apoptosis protein (Genbank U32974), used mostly as recombinant GST fusion or expressed from plasmid | co-immunoprecipitated | about 5 fold | nearly completely abolished
 | efficiently inhibited |  |  | associated with pro-caspase-9 | c-IAP-2: cellular IAP protein c-IAP-2/HIAP-1/hMIHC, recombinant GST fusion or myc-tagged | co-immunoprecipitated |  | inhibited pro-caspase-9 processing, albeit to a lesser extent
